The results in this text go back to patent US20260234226A1 (IMAGINAB, published 2026).

The EC50 is the concentration at which the effect is half-maximal. As usually defined, the EC50 (read off the curve) is the concentration giving half of the maximal effect. What is called Kd is the equilibrium constant for the complex coming apart. A low value points to tighter binding. One may read the koff as the first-order rate constant of dissociation. A high value points to fast dissociation. For orientation: kon means a measure of how fast the partners come together. Higher therefore signals faster complex formation.

Changes are numbered by the printed parent chain.

T1: DLL3 on tumor cells of the SHP-77 and NCI-H82 cell lines (UniProt Q9NYJ7 27-618, limits assumed)
T1 construct: whole, on cells; also called cellular targets
T1 sequence (looked up): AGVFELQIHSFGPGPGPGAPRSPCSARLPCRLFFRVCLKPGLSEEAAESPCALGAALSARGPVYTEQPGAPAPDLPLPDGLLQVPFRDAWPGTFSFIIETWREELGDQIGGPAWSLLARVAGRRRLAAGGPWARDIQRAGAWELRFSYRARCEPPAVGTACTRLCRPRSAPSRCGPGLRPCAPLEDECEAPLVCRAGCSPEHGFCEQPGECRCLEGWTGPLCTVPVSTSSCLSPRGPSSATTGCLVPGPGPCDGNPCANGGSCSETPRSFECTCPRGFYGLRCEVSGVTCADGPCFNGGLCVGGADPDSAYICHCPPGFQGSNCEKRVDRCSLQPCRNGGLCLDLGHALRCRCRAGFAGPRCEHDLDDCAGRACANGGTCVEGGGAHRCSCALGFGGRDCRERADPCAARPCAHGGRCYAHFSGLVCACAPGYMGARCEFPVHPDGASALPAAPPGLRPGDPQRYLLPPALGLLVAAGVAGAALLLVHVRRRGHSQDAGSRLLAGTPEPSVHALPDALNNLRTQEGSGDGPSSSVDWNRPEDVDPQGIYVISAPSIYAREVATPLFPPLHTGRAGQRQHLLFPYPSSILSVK

B1: IAB57M2-6 (other)
chain: QVQLVQSGAEVKKPGASVKVSCKASGYTFTNYGMNWVRQAPGQGLEWMGWINTYTGEPTYADDFKGRVTMTTDTSTSTAYMELRSLRSDDTAVYYCARIGDSSPSDYWGQGTLVTVSSGSTSGGGSGGGSGGGGSSEIVMTQSPATLSVSPGERATLSCKASQSVSNDVVWYQQKPGQAPRLLIYYASNRNTGIPARFSGSGSGTEFTLTISSLQSEDFAVYYCQQDYTSPWTFGQGTKLEIKEPKSSDKTHTCPPCPPCGGGSSGGGSGGQPREPQVYTLPPSREEMTKNQVSLTCLVKGFYPSDIAVEWESNGQPENNYKTTPPVLDSDGSFFLYSKLTVDKSRWQQGNVFSCSVMHEALHNHYTQKSLSLSPG
notes: Signal peptide left out
B2: IAB57M1-3 (other)
chain: EIVMTQSPATLSVSPGERATLSCKASQSVSNDVVWYQQKPGQAPRLLIYDASNRYTGIPARFSGSGSGTEFTLTISSLQSEDFAVYYCQQDYTSPWTFGQGTKLEIKGSTSGGGSGGGSGGGGSSQVQLVQSGAEVKKPGASVKVSCKASGYTFTNYGMNWVRQAPGQGLEWMGWINTYTGEPTYADDFKGRVTMTTDTSTSTAYMELRSLRSDDTAVYYCARIGDSSPSDYWGQGTLVTVSSEPKSSDKTHTCPPCPPCGGGSSGGGSGGQPREPQVYTLPPSREEMTKNQVSLTCLVKGFYPSDIAVEWESNGQPENNYKTTPPVLDSDGSFFLYSKLTVDKSRWQQGNVFSCSVMHEALHNHYTQKSLSLSPG
notes: Signal peptide left out
B3: IAB57M2-2 (other)
chain: B1 chain with N191Y
notes: Parental minibody; Signal peptide left out; also called parental minibody IAB57M2-2
B4: IAB57M2-4 (other)
chain: B1 chain with Y186D, N191Y
notes: Signal peptide left out
B5: IAB57M2-8 (other)
chain: B1 chain with Y186D
notes: Signal peptide left out
B6: IAB57M1-1 (other)
chain: B2 chain with D50Y
notes: Parental minibody; also called parental minibody IAB57M1-1
B7: IAB57M1-5 (other)
chain: B2 chain with D50Y, Y55N
notes: Signal peptide left out
B8: IAB57M1-7 (other)
chain: B2 chain with Y55N
notes: Signal peptide left out

The first experiment has as its target T1, DLL3 on tumor cells of the SHP-77 and …. As to the kind of experiment: flow cytometry on SHP-77 tumor cells, mean fluorescence; the legend gives no unit, nM is from the axis '[Minibody],nM'. The protocol:
(§1) As disclosed herein, the binding of constructs to cellular targets was assessed using flow cytometry. Stock of 2.5× serial dilution of minibodies were created starting from a concentration of 100 nM in 180 μl FACS buffer (PBS 2% FBS). Cells were added to a Corning V-bottom polypropylene cell culture plate at 200,000 cells/well. The cells were centrifuged at 100 rpm for 3 minutes and the supernatant discarded. The minibody dilution series were transferred to the plate containing cell pellets and incubated for 1 hr at 4° C. The plate was then washed 3 times with FACS buffer at 200 μl/well, discarding supernatant after each wash by centrifugation at 1000 rpm. 50 μl/well of detection antibody R&D AlexaFluor-647 Goat anti Human (H+L) was added at a 1:100 dilution in FACS buffer and incubated at 4° C. 1 hr. The plate was washed 3 times with FACS buffer at 200 μl/well, discarding supernatant after each wash by centrifuging at 1000 rpm. Cells were then fixed by adding 100 μl of 1% paraformaldehyde in PBS and incubating at room temperature for 15 minutes. 100 μl of PBS were added to each well and the plate was analyzed by flow cytometry using the allophycocyanin fluorescence setting.
Regarding B1, a half-maximal effect (EC50) was put at 0.014 nM.
With B2, the half-maximal effective concentration (EC50) was determined as 0.01 nM.

In the next experiment the target is T2, purified human/cynomolgus/dog/mouse/rat or minipig DLL3 antigen (ELISA coat) (human/cynomolgus/dog/mouse/rat or …).
T2 construct: May be the same protein as the his-tagged antigen used for BLI
T2 sequence (Q9NYJ7 whole entry): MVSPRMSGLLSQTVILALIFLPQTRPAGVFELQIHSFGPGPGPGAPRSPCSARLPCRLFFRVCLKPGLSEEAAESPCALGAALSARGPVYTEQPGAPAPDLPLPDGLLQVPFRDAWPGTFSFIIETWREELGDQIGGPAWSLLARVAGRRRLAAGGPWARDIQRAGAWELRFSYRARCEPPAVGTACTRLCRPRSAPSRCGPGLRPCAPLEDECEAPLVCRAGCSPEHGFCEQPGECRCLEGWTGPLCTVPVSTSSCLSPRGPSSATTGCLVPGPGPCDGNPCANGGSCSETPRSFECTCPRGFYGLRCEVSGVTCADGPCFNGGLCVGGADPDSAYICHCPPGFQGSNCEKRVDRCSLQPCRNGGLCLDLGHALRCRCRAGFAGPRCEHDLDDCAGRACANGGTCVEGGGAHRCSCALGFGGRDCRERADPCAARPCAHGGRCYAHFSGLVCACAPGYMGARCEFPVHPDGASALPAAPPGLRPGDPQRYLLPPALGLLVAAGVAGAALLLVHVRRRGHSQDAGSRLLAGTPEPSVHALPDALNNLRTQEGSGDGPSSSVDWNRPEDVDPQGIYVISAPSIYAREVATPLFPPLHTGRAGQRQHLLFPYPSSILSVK
As to the kind of experiment: ELISA, plate coated with purified DLL3 antigen, HRP secondary (FIG. 8). The procedure: (§2) Binding affinity of the novel antigen binding constructs to a purified human/cynomolgus/dog/mouse/rat or minipig DLL3 antigen was assessed using ELISA. For this assay, a 96 well ELISA plate was coated with the DLL3 antigen diluted to a concentration of […] in coating buffer (0.05M sodium carbonate-bicarbonate buffer, pH 9.6). 100 μl of this coating solution was added to each well in the plate and incubate at 4° C. overnight. The plate was washed 3 times with 300 μl per well of washing buffer (PBS with 0.05% Tween-20). After the last wash, the plate was blocked by adding to each well 200 μl of blocking buffer (PBS with 1% BSA) warmed to room temperature. The plate was then incubated at room temperature for 1 hour under gentle agitation. After blocking, the plate was washed 3 times with 300 μl per well of washing buffer. Dilution samples for each minibody were created by making 2.5× dilutions from a starting sample at 100 ng/mL, or 250 ng/mL, or 1000 ng/mL or 3000 ng/mL in 100 μL sample buffer (PBS with 1% BSA). The dilution samples were transferred to the assay plate and incubated at room temperature for 1 hour under gentle agitation. The plate was then washed 3 times with 300 μl per well of washing buffer.
Detection was performed by adding 100 μl of HRP labeled detection secondary antibody at an appropriate dilution and incubating the plate at room temperature for 1 hour under gentle agitation. The plate was then washed 3 times with 300 μl per well of washing buffer. For color development, 100 μl of TMB substrate regent, pre-warmed to room temperature, was added to the plate and incubated in the dark at room temperature for 15 min. The reaction was then stopped by adding 100 μl of 650 nm stop solution to the plate and mixed for 1 min at room temperature under gentle agitation. The plate is recorded by reading OD at 650 nm in a plate reader within 20 min after terminating the reaction.
(In general: In an ELISA, binding on a coated surface is turned into a signal by an enzyme label.)
Molecule B3 came in with a concentration giving a half-maximal response (EC50) of 0.12 nM.
Same read-out and setting: next, B4: 0.118 nM.
In the case of B1, it took 0.161 nM to reach a half-maximal effect (EC50).
On to B5, for which the EC50 was 0.123 nM.
In turn, B6 had an EC50 of 0.0946 nM.
The molecule B2 gave a concentration for a half-maximal effect (EC50) of 0.109 nM.
B7 returned an EC50 of 0.125 nM.
Molecule B8 came in with an EC50 of 0.111 nM.

The target of another experiment is T1, DLL3 on tumor cells of the SHP-77 and …. As to the kind of experiment: flow cytometry on NCI-H82 tumor cells, mean fluorescence; the legend gives no unit, nM is from the axis '[Minibody],nM'. The protocol:
as §1
B1 returned an EC50 of 0.063 nM.
In the case of B2, the response was half-maximal at 0.04 nM (EC50).

In another experiment the target is T2, purified human/cynomolgus/dog/mouse/rat …. As to the kind of experiment: ELISA on plate-coated recombinant DLL3 antigen, A650 readout, left panel 'DLL3 ELISA'; the table gives no unit, nM is from the axis 'Antibody Concentration (nM)'. The protocol: as §2, with “The dilution samples were transferred to the assay plate and incubated at room temperature for 1 hour under gentle agitation. The plate was then washed 3 times with 300 μl per well of washing buffer.” left out
(§3) Detection was performed by adding 100 μl of HRP labeled detection secondary antibody at an appropriate dilution and incubating the plate at room temperature for 1 hour under gentle agitation. […] The plate is recorded by reading OD at 650 nm in a plate reader within 20 min after terminating the reaction.
With B3, the 50% effective concentration (EC50) is 0.132 nM.
Take B6: the concentration for a half-maximal effect (EC50) turned out to be 0.115 nM.

For another experiment, the target named is T3, his-tagged-DLL3 antigen (purified human/cynomolgus/dog/mouse/rat or minipig DLL3 antigen) (human/cynomolgus/dog/mouse/rat or …).
T3 construct: Antigen loaded on nickel-NTA tips for biolayer interferometry; also called Delta-like protein 3
T3 sequence (Q9NYJ7 whole entry): as above
As to the kind of experiment: biolayer interferometry, his-tagged DLL3 on a Ni-NTA tip, minibody at 100 nM; the table gives no unit, nm is from the axis 'Binding (nm)'. The protocol: (§4) As disclosed herein, the binding kinetics of the novel antigen binding constructs to a purified human/cynomolgus/dog/mouse/rat or minipig DLL3 antigen was assessed using biolayer interferometry (TABLE 9) (FIG. 9). The his-tagged-DLL3 antigen was diluted in phosphate buffer saline (PBS) at 10 μg/mL and loaded on a nickel-NTA tip until saturation. The on-rate (Kon) and off-rate (Koff), and the dissociation constant KD, where recorded on Octet BLItz instrument. Dilution samples of the antigen binding construct were prepared in PBS at concentrations between 100 nM and 0.1 nM, by 2.5× dilutions and binding curves recorded at each concentration. Off-rate curves were recorded by immersion of the tip in PBS.
(In BLI a coated tip is dipped into the sample, and binding shifts an interference pattern.)
The molecule B3 returned a R equilibrium of 0.876 nm.
For the molecule B4, the R equilibrium amounted to 0.911 nm.
Regarding B2, the R equilibrium stood at 1.04 nm.

For another experiment, the target named is T2, purified human/cynomolgus/dog/mouse/rat …. The experiment can be described thus: ELISA on plate-coated recombinant DLL3 antigen, A650 readout, panel with IAB57M1-7, IAB57M2-8, IAB57M1-3 and IAB57M2-6. The procedure: as §2, with “The dilution samples were transferred to the assay plate and incubated at room temperature for 1 hour under gentle agitation. The plate was then washed 3 times with 300 μl per well of washing buffer.” left out
as §3
As for B2, the “EC50 (read off the curve)” value is roughly 0.1 nM.

The next experiment concerns the target T3, his-tagged-DLL3 antigen (purified …). The experiment can be described thus: biolayer interferometry (Octet BLItz), his-tagged DLL3 on nickel-NTA tip, minibody in solution. The procedure:
as §4
B3 came in with a Kd of 3.07 nM, a koff of 0.00214 s⁻¹ and an association rate constant (kon) of 698000 M⁻¹ s⁻¹.
Molecule B4 had an equilibrium dissociation constant (Kd) of 4.84 nM, a koff of 0.00281 s⁻¹ and an association rate constant (kon) of 581000 M⁻¹ s⁻¹.
Take B1: the dissociation constant Kd is less than 0.001 nM, the koff is less than 1e-07 s⁻¹ and the kon was 785000 M⁻¹ s⁻¹.
For B6 the same measures were 3.33 nM, 0.00279 s⁻¹ and 838000 M⁻¹ s⁻¹.
B2 showed a Kd of 4 nM, a koff of 0.00239 s⁻¹ and a kon of 599000 M⁻¹ s⁻¹.

Another experiment deals with T2, purified human/cynomolgus/dog/mouse/rat …. As to the kind of experiment: ELISA on plate-coated recombinant DLL3 antigen, A650 readout, panel with IAB57M1-7, IAB57M2-8, IAB57M1-3 and IAB57M2-6; the table gives no unit, nM is from the axis 'Antibody Concentration (nM)'. The protocol: as §2, with “The dilution samples were transferred to the assay plate and incubated at room temperature for 1 hour under gentle agitation. The plate was then washed 3 times with 300 μl per well of washing buffer.” left out
as §3
On to B1, for which the half-maximal effective concentration (EC50) came to 0.157 nM.
